The data set relates to IgG Fc fragment (IgG-Fc) (human), P01857-1. In words: SPR. Particulars: 2'-F at all pyrimidines; solution A.
By Kd is commonly meant the constant that tells how readily two partners part at equilibrium. A high value points to weaker binding. Take “GGGACACAAUGGACGAAAGGUGCUCCAACUAAAUUUGGAACUUUCCACCCAUAAUAACGGCCGACAUGAGAG [SEQ ID NO:8]”: the Kd worked out at 7000 pM.

Regarding “GGGACACAAUGGACGACUACAAGGUGCUCCUUGAAAUGUUAAAUGAGGAACUUGUAACGGCCGACAUGAGAG [SEQ ID NO:5]”, the Kd came out at 0.6 pM.

For the sequence “GGGACACAAUGGACGAGUUACAGGUGCUCCAUCAACAAAAUGUUACAUGGAACUGUAACGGCCGACAUGAGAG [SEQ ID NO:1]”, the Kd was determined as 1.1 pM.

The sequence “GGGACACAAUGGACGGCCAACGUUAACUGGAACUGUAAAUCAGGUGCUCGAGAUAACGGCCGACAUGAGAG [SEQ ID NO:4]” displayed a Kd of 6 pM.

Regarding “GGGACACAAUGGACGGCGUAAAAUGGAACCUGGGUUAGAAUAUCGGGGGUGCUCCGUAACGGCCGACAUGAGAG [SEQ ID NO:3]”, the Kd is 0.5 pM.

In the case of “GGGACACAAUGGACGGCUGGUAAGGUGCUCGGAAUGGAACUCGUCAUUCGGAACUUAACGGCCGACAUGAGAG [SEQ ID NO:6]”, the dissociation constant Kd stood at 3000 pM.

The sequence “GGGACACAAUGGACGGGUGUUACAGGUGCUUGAUAAAGGUAGAAAAUCAAACUGUAACGGCCGACAUGAGAG [SEQ ID NO:7]” had a dissociation constant (Kd) of 1 pM.

Regarding “GGGACACAAUGGACGUCAAAGAAGAGGUGCUCUGCGAGCCACGCGGAACUCUAUAACGGCCGACAUGAGAG [SEQ ID NO:2]”, the Kd is 7400 pM.
